What is called Kd is the equilibrium constant for the complex coming apart.

Assay [1] deals with T1, tissue-type plasminogen activator (tPA) (human, UniProt P00750 36-562).
T1 construct: Full-length commercial tPA; also called Actilyse; Alteplase
Kind of assay: ELISA, tPA immobilized, concentration series of recombinant β2GPI. On the procedure: (§1) Binding of β₂GPI was assessed with monoclonal antibody 2B2²².
(§2) The positive control was amyloid fibrin peptide FP13. […] C. […] Eluted fractions are analyzed on Western blot after SDS-PA electrophoresis. […] Signals are corrected for background fluorescence of CL, DXS, ThT and buffer.

Assay [2] has as its target T2, factor XII (purified human factor XII from plasma) (human, UniProt P00748 20-615).
T2 construct: also called FXII
T2 sequence (looked up): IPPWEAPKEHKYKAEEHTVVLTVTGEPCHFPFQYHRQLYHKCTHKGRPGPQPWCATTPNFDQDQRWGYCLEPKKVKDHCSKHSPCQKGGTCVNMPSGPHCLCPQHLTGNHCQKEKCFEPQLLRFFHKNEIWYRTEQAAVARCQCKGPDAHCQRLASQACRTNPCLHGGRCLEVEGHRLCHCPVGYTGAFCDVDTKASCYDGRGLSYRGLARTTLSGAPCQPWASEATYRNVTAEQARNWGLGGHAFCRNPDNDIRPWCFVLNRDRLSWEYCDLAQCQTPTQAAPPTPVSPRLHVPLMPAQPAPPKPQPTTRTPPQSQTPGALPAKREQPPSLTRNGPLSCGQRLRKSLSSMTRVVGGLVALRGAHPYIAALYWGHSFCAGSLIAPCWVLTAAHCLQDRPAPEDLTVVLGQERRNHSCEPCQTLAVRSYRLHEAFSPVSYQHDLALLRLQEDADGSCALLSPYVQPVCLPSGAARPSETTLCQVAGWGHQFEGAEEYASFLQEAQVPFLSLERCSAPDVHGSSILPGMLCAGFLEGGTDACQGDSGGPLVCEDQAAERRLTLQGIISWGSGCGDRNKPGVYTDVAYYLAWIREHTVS
Kind of assay: ELISA, factor XII immobilized, concentration series of recombinant β2GPI. On the procedure: as §1, §2
(An ELISA detects its analyte on a solid surface through an enzyme-linked reagent.)

In assay [3] the target is T1, tissue-type plasminogen activator (tPA). Kind of assay: ELISA, tPA coated, concentration series of recombinant β2GPI. The protocol:
as §1, §2

The target in assay [4] is T2, factor XII (purified human factor XII …). Kind of assay: ELISA, factor XII coated, concentration series of recombinant β2GPI.
In assay [5] the target is T1, tissue-type plasminogen activator (tPA). Kind of assay: ELISA, therapeutic coated on Nunc Immobilizer plate, concentration series of tPA, one-site binding fit. The protocol:
Plates were washed twice with Tris buffered saline pH 7.2 containing 0.1% Tween20 (TBST) and blocked with PBS containing 1% Tween20 for 1 hour at room temperature. […] Plates were washed five times with TBST and incubated with peroxidase labeled anti-mouse immunoglobulins (RAMPO; DAKOCytomation, Glostrup, Denmark) diluted 1:3000 in PBST for 30 minutes at room temperature. Plates were washed five times with PBS 0.1% Tween20, and stained with 100 μL/well of tetramethyl-benzidine (TMB) substrate (Biosource Europe, Nivelles, Belgium). The reaction was terminated with 50 μL/well of 2 M H₂SO₄ and substrate conversion was read at 450 nm on a Spectramax340 microplate reader. Curves were fitted with a one-site binding model (GraphPad Prism version 4.02 for Windows, Graphpad Software, Calif., USA) from which Kd and Bmax were determined.

T1 sequence (P00750 36-562 limits assumed): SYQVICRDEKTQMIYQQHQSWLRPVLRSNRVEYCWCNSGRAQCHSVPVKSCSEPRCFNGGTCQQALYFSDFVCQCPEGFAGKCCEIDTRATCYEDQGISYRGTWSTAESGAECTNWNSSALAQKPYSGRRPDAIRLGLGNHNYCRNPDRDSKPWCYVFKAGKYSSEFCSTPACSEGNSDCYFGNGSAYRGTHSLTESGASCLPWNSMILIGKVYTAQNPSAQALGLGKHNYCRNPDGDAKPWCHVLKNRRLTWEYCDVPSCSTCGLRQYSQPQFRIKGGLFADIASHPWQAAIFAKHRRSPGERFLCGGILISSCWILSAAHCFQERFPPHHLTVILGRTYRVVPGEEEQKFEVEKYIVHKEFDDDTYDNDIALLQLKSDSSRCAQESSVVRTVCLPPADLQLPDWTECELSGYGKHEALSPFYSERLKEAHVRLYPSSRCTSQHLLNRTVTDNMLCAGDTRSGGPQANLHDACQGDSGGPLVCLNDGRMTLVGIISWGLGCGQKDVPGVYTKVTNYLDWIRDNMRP

B1: recombinant human β2-glycoprotein I (insect cells) (other, UniProt P02749 20-345, looked up)
chain: GRTCPKPDDLPFSTVVPLKTFYEPGEEITYSCKPGYVSRGGMRKFICPLTGLWPINTLKCTPRVCPFAGILENGAVRYTTFEYPNTISFSCNTGFYLNGADSAKCTEEGKWSPELPVCAPIICPPPSIPTFATLRVYKPSAGNNSLYRDTAVFECLPQHAMFGNDTITCTTHGNWTKLPECREVKCPFPSRPDNGFVNYPAKPTLYYKDKATFGCHDGYSLDGPEEIECTKLGNWSAMPSCKASCKVPVKKATVVYQGERVKIQEKFKNGMLHGDKVSFFCKNKEKKCSYTEDAQCIDGTIEVPKCFKEHSSLAFWKTDASDVKPC
notes: also called recombinant β2GPI; rβ2GPI
Consider B1, for which the Kd in assay [1] was found to be 2.3 µg/mL; in assay [2], 0.9 µg/mL; in assay [3], 51 nM; in assay [4] it was 20 nM.

B2: human coagulation factor VIII (FVIII) (Aafact) (other)
chain 1: ATRRYYLGAVELSWDYMQSDLGELPVDARFPPRVPKSFPFNTSVVYKKTLFVEFTDHLFNIAKPRPPWMGLLGPTIQAEVYDTVVITLKNMASHPVSLHAVGVSYWKASEGAEYDDQTSQREKEDDKVFPGGSHTYVWQVLKENGPMASDPLCLTYSYLSHVDLVKDLNSGLIGALLVCREGSLAKEKTQTLHKFILLFAVFDEGKSWHSETKNSLMQDRDAASARAWPKMHTVNGYVNRSLPGLIGCHRKSVYWHVIGMGTTPEVHSIFLEGHTFLVRNHRQASLEISPITFLTAQTLLMDLGQFLLFCHISSHQHDGMEAYVKVDSCPEEPQLRMKNNEEAEDYDDDLTDSEMDVVRFDDDNSPSFIQIRSVAKKHPKTWVHYIAAEEEDWDYAPLVLAPDDRSYKSQYLNNGPQRIGRKYKKVRFMAYTDETFKTREAIQHESGILGPLLYGEVGDTLLIIFKNQASRPYNIYPHGITDVRPLYSRRLPKGVKHLKDFPILPGEIFKYKWTVTVEDGPTKSDPRCLTRYYSSFVNMERDLASGLIGPLLICYKESVDQRGNQIMSDKRNVILFSVFDENRSWYLTENIQRFLPNPAGVQLEDPEFQASNIMHSINGYVFDSLQLSVCLHEVAYWYILSIGAQTDFLSVFFSGYTFKHKMVYEDTLTLFPFSGETVFMSMENPGLWILGCHNSDFRNRGMTALLKVSSCDKNTGDYYEDSYEDISAYLLSKNNAIEPRSFSQNSRHPSTRQKQFNATTIPENDIEKTDPWFAHRTPMPKIQNVSSSDLLMLLRQSPTPHGLSLSDLQEAKYETFSDDPSPGAIDSNNSLSEMTHFRPQLHHSGDMVFTPESGLQLRLNEKLGTTAATELKKLDFKVSSTSNNLISTIPSDNLAAGTDNTSSLGPPSMPVHYDSQLDTTLFGKKSSPLTESGGPLSLSEENNDSKLLESGLMNSQESSWGKNVSSTESGRLFKGKRAHGPALLTKDNALFKVSISLLKTNKTSNNSATNRKTHIDGPSLLIENSPSVWQNILESDTEFKKVTPLIHDRMLMDKNATALRLNHMSNKTTSSKNMEMVQQKKEGPIPPDAQNPDMSFFKMLFLPESARWIQRTHGKNSLNSGQGPSPKQLVSLGPEKSVEGQNFLSEKNKVVVGKGEFTKDVGLKEMVFPSSRNLFLTNLDNLHENNTHNQEKKIQEEIEKKETLIQENVVLPQIHTVTGTKNFMKNLFLLSTRQNVEGSYDGAYAPVLQDFRSLNDSTNRTKKHTAHFSKKGEEENLEGLGNQTKQIVEKYACTTRISPNTSQQNFVTQRSKR
chain 2: EITRTTLQSDQEEIDYDDTISVEMKKEDFDIYDEDENQSPRSFQKKTRHYFIAAVERLWDYGMSSSPHVLRNRAQSGSVPQFKKVVFQEFTDGSFTQPLYRGELNEHLGLLGPYIRAEVEDNIMVTFRNQASRPYSFYSSLISYEEDQRQGAEPRKNFVKPNETKTYFWKVQHHMAPTKDEFDCKAWAYFSDVDLEKDVHSGLIGPLLVCHTNTLNPAHGRQVTVQEFALFFTIFDETKSWYFTENMERNCRAPCNIQMEDPTFKENYRFHAINGYIMDTLPGLVMAQDQRIRWYLLSMGSNENIHSIHFSGHVFTVRKKEEYKMALYNLYPGVFETVEMLPSKAGIWRVECLIGEHLHAGMSTLFLVYSNKCQTPLGMASGHIRDFQITASGQYGQWAPKLARLHYSGSINAWSTKEPFSWIKVDLLAPMIIHGIKTQGARQKFSSLYISQFIIMYSLDGKKWQTYRGNSTGTLMVFFGNVDSSGIKHNIFNPPIIARYIRLHPTHYSIRSTLRMELMGCDLNSCSMPLGMESKAISDAQITASSYFTNMFATWSPSKARLHLQGRSNAWRPQVNNPKEWLQVDFQKTMKVTGVTTQGVKSLLTSMYVKEFLISSSQDGHQWTLFFQNGKVKVFQGNQDSFTPVVNSLDPPLLTRYLRIHPQSWVHQIALRMEVLGCEAQDLY
B2 returned a Kd in assay [5] of 230 nM.

B3: abciximab (ReoPro) (Fab, V domains shown)
VH: EVQLQQSGTVLARPGASVKMSCEASGYTFTNYWMHWVKQRPGQGLEWIGAIYPGNSDTSYIQKFKGKAKLTAVTSTTSVYMELSSLTNEDSAVYYCTLYDGYYVFAYWGQGTLVTVSA
VL: EIVLTQSPVTLSVTPGDSVSLSCRASRDISNNLHWFQQTSHESPRLLIKYASQSMSGIPSRFSGSGSGTDFTLSINSVETEDFGMYFCQQTNSWPYTFGGGTKLEIK
In assay [5], B3 had a Kd of 216 nM.

Source of the values: US20080220446A1 (published 2008).
